Assay results from patent publication US20120090043A1, “TARGETS FOR RETROVIRUS ASSOCIATED DISEASES” (priority 2009, published 2012).

Test system: HTLV-1 LTR promoter transactivation by HTLV-1 Tax
Experiment: Transactivation assay, HTLV-1 LTR luciferase reporter with HTLV-1 Tax
Type: cell-based
Settings: HEK293 cells co-transfected with pHTLV1LTR-Luc, HTLV-1 Tax and the human ORF; relative luciferase activity 24 h post-transfection; positive if >=2 or <=0.5 and p<0.05
Description: Twenty-four hours post-transfection, cells were washed three times with PBS, lysed and luciferase activities determined from two independent transfection experiments in triplicate. We computed a paired t-test to assess the difference of the means between samples with and without the human interactor. For a trial to be considered positive, the relative luciferase activities has to be >=2 or <=0.5, and the p-value of the t-test<0.05.
Expression vectors encoding human ORFs and HIV-1 Tat or HTLV-1 Tax proteins were tested in a transactivation reporter assay against reporter plasmids harboring HIV-1 or HTLV-1 viral promoter sequences cloned upstream of the luciferase reporter gene. […] Wherever not expressly specified, constructs used herein were generally made by sub-cloning entry clones from the ORFeome V3.1 into suitable destination vectors.

Row | Molecule | HTLV_LTR transactiv.
1 | KIF9: human host interactor protein, Gene ID 64147, expressed from transfected ORF vector (protein) MGTRKKVHAFVRVKPTDDFAHEMIRYGDDKRSIDIHLKKDIRRGVVNNQQTDWSFKLDGVLHDASQDLVYETVAKDVVSQALDGYNGTIMCYGQTGAGKTYTMMGATENYKHRGILPRALQQVFRMIEERPTHAITVRVSYLEIYNESLFDLLSTLPYVGPSVTPMTIVENPQGVFIKGLSVHLTSQEEDAFSLLFEGETNRIIASHTMNKNSSRSHCIFTIYLEAHSRTLSEEKYITSKINLVDLAGSERLGKSGSEGQVLKEATYINKSLSFLEQAIIALGDQKRDHIPFRQCKLTHALKDSLGGNCNMVLVTNIYGEAAQLEETLSSLRFASRMKLVTTEPAINEKYDAERMVKNLEKELALLKQELAIHDSLTNRTFVTYDPMDEIQIAEINSQVRRYLEGTLDEIDIISLRQIKEVFNQFRVVLSQQEQEVESTLRRKYTLIDRNDFAAISAIQKAGLVDVDGHLVGEPEGQNFGLGVAPFSTKPGKKAKSKKTFKEPLSSLARKEGASSPVNGKDLDYVSTSKTQLVPSSKDGDVKDMLSRDRETSSIEPLPSDSPKEELRPIRPDTPPSKPVAFEEFKNEQGSEINRIFKENKSILNERRKRASETTQHINAIKREIDVTKEALNFQKSLREKQGKYENKGLMIIDEEEFLLILKLKDLKKQYRSEYQDLRDLRAEIQYCQHLVDQCRHRLLMEFDIWYNESFVIPEDMQMALKPGGSIRPGMVPVNRIVSLGEDDQDKFSQLQQRVLPEGPDSISFYNAKVKIEQKHNYLKTMMGLQQAHRK | 0.37 fold change
2 | MAD1L1: human host interactor protein, Gene ID 8379, expressed from transfected ORF vector (protein) MEDLGENTMVLSTLRSLNNFISQRVEGGSGLDISTSAPGSLQMQYQQSMQLEERAEQIRSKSHLIQVEREKMQMELSHKRARVELERAASTSARNYEREVDRNQELLTRIRQLQEREAGAEEKMQEQLERNRQCQQNLDAASKRLREKEDSLAQAGETINALKGRISELQWSVMDQEMRVKRLESEKQELQEQLDLQHKKCQEANQKIQELQASQEARADHEQQIKDLEQKLSLQEQDAAIVKNMKSELVRLPRLERELKQLREESAHLREMRETNGLLQEELEGLQRKLGRQEKMQETLVGLELENERLLAKLQSWERLDQTMGLSIRTPEDLSRFVVELQQRELALKDKNSAVTSSARGLEKARQQLQEELRQVSGQLLEERKKRETHEALARRLQKRVLLLTKERDGMRAILGSYDSELTPAEYSPQLTRRMREAEDMVQKVHSHSAEMEAQLSQALEELGGQKQRADMLEMELKMLKSQSSSAEQSFLFSREEADTLRLKVEELEGERSRLEEEKRMLEAQLERRALQGDYDQSRTKVLHMSLNPTSVARQRLREDHSQLQAECERLRGLLRAMERGGTVPADLEAAAASLPSSKEVAELKKQVESAELKNQRLKEVFQTKIQEFRKACYTLTGYQIDITTENQYRLTSLYAEHPGDCLIFKATSPSGSKMQLLETEFSHTVGELIEVHLRRQDSIPAFLSSLTLELFSRQTVA | 0.20 fold change
3 | KLC3: human host interactor protein, Gene ID 147700, expressed from transfected ORF vector (protein) MSVQVAAPGSAGLGPERLSPEELVRQTRQVVQGLEALRAEHHGLAGHLAEALAGQGPAAGLEMLEEKQQVVSHSLEAIELGLGEAQVLLALSAHVGALEAEKQRLRSQARRLAQENVWLREELEETQRRLRASEESVAQLEEEKRHLEFLGQLRQYDPPAESQQSESPPRRDSLASLFPSEEEERKGPEAAGAAAAQQGGYEIPARLRTLHNLVIQYAGQGRYEVAVPLCRQALEDLERSSGHCHPDVATMLNILALVYRDQNKYKEATDLLHDALQIREQTLGPEHPAVAATLNNLAVLYGKRGRYREAEPLCQRALEIREKVLGADHPDVAKQLNNLALLCQNQGKFEDVERHYARALSIYEALGGPHDPNVAKTKNNLASAYLKQNKYQQAEELYKEILHKEDLPAPLGAPNTGTAGDAEQALRRSSSLSKIRESIRRGSEKLVSRLRGEAAAGAAGMKRAMSLNTLNVDAPRAPGTQFPSWHLDKAPRTLSASTQDLSPH | 0.31 fold change
4 | SPG21: human host interactor protein, Gene ID 51324, expressed from transfected ORF vector (protein) MGEIKVSPDYNWFRGTVPLKKIIVDDDDSKIWSLYDAGPRSIRCPLIFLPPVSGTADVFFRQILALTGWGYRVIALQYPVYWDHLEFCDGFRKLLDHLQLDKVHLFGASLGGFLAQKFAEYTHKSPRVHSLILCNSFSDTSIFNQTWTANSFWLMPAFMLKKIVLGNFSSGPVDPMMADAIDFMVDRLESLGQSELASRLTLNCQNSYVEPHKIRDIPVTIMDVFDQSALSTEAKEEMYKLYPNARRAHLKTGGNFPYLCRSAEVNLYVQIHLLQFHGTKYAAIDPSMVSAEELEVQKGSLGISQEEQ | 0.21 fold change
5 | NEFL: human host interactor protein, Gene ID 4747, expressed from transfected ORF vector (protein) MSSFSYEPYYSTSYKRRYVETPRVHISSVRSGYSTARSAYSSYSAPVSSSLSVRRSYSSSSGSLMPSLENLDLSQVAAISNDLKSIRTQEKAQLQDLNDRFASFIERVHELEQQNKVLEAELLVLRQKHSEPSRFRALYEQEIRDLRLAAEDATNEKQALQGEREGLEETLRNLQARYEEEVLSREDAEGRLMEARKGADEAALARAELEKRIDSLMDEISFLKKVHEEEIAELQAQIQYAQISVEMDVTKPDLSAALKDIRAQYEKLAAKNMQNAEEWFKSRFTVLTESAAKNTDAVRAAKDEVSESRRLLKAKTLEIEACRGMNEALEKQLQELEDKQNADISAMQDTINKLENELRTTKSEMARYLKEYQDLLNVKMALDIEIAAYRKLLEGEETRLSFTSVGSITSGYSQSSQVFGRSAYGGLQTSSYLMSTRSFPSYYTSHVQEEQIEVEETIEAAKAEEAKDEPPSEGEAEEEEKDKEEAEEEEAAEEEEAAKEESEEAKEEEEGGEGEEGEETKEAEEEEKKVEGAGEEQAAKKKD | 0.45 fold change
6 | RNPS1: human host interactor protein, Gene ID 10921, expressed from transfected ORF vector (protein) MDLSGVKKKSLLGVKENNKKSSTRAPSPTKRKDRSDEKSKDRSKDKGATKESSEKDRGRDKTRKRRSASSGSSSTRSRSSSTSSSGSSTSTGSSSGSSSSSASSRSGSSSTSRSSSSSSSSGSPSPSRRRHDNRRRSRSKSKPPKRDEKERKRRSPSPKPTKVHIGRLTRNVTKDHIMEIFSTYGKIKMIDMPVERMHPHLSKGYAYVEFENPDEAEKALKHMDGGQIDGQEITATAVLAPWPRPPPRRFSPPRRMLPPPPMWRRSPPRMRRRSRSPRRRSPVRRRSRSPGRRRHRSRSSSNSSR | 11.12 fold change
7 | MYEF2: human host interactor protein, Gene ID 50804, expressed from transfected ORF vector (protein) MADANKAEVPGATGGDSPHLQPAEPPGEPRREPHPAEAEKQQPQHSSSSNGVKMENDESAKEEKSDLKEKSTGSKKANRFHPYSKDKNSGAGEKKGPNRNRVFISNIPYDMKWQAIKDLMREKVGEVTYVELFKDAEGKSRGCGVVEFKDEEFVKKALETMNKYDLSGRPLNIKEDPDGENARRALQRTGGSFPGGHVPDMGSGLMNLPPSILNNPNIPPEVISNLQAGRLGSTIFVANLDFKVGWKKLKEVFSIAGTVKRADIKEDKDGKSRGMGTVTFEQAIEAVQAISMFNGQFLFDRPMHVKMDDKSVPHEEYRSHDGKTPQLPRGLGGIGMGLGPGGQPISASQLNIGGVMGNLGPGGMGMDGPGFGGMNRIGGGIGFGGLEAMNSMGGFGGVGRMGELYRGAMTSSMERDFGRGDIGINQGFGDSFGRLGSAMIGGFAGRIGSSNMGPVGSGISGGMGSMNSVTGGMGMGLDRMSSSFDRMGPGIGAILERSIDMDRGFLSGPMGSGMRERIGSKGNQIFVRNLPFDLTWQKLKEKFSQCGHVMFAEIKMENGKSKGCGTVRFDSPESAEKACRIMNGIKISGREIDVRLDRNA | 2.53 fold change
8 | LENG1: human host interactor protein, Gene ID 79165, expressed from transfected ORF vector (protein) MNILPKKSWHVRNKDNVARVRRDEAQAREEEKERERRVLLAQQEARTEFLRKKARHQNSLPELEAAEAGAPGSGPVDLFRELLEEGKGVIRGNKEYKEEKRQEKERQEKALGILTYLGQSAAEAQTQPPWYQLPPGRGGPPPGPAPDEKIKSRLDPLREMQKHLGKKRQHGGDEGSRSRKEKEGSEKQRPKEPPSLDQLRAERLRREAAERSRAEALLARVQGRALQEGQPEEDETDDRRRRYNSQFNPQLARRPRQQDPHLTH | 0.34 fold change
9 | NIF3L1: human host interactor protein, Gene ID 60491, expressed from transfected ORF vector (protein) MLSSCVRPVPTTVRFVDSLICNSSRSFMDLKALLSSLNDFASLSFAESWDNVGLLVEPSPPHTVNTLFLTNDLTEEVMEEVLQKKADLILSYHPPIFRPMKRITWNTWKERLVIRALENRVGIYSPHTAYDAAPQGVNNWLAKGLGACTSRPIHPSKAPNYPTEGNHRVEFNVNYTQDLDKVMSAVKGIDGVSVTSFSARTGNEEQTRINLNCTQKALMQVVDFLSRNKQLYQKTEILSLEKPLLLHTGMGRLCTLDESVSLATMIDRIKRHLKLSHIRLALGVGRTLESQVKVVALCAGSGSSVLQGVEADLYLTGEMSHHDTLDAASQGINVILCEHSNTERGFLSDLRDMLDSHLENKINIILSETDRDPLQVV | 0.39 fold change
